Drawing on a protein production outcome set (Wang et al. 2014), this text covers protein production for 15 sequences.

This data set in a line: label from the status in PepcDB records.
With “MTVITLVLGMLLPAVVSILMLMASTQSRISEEENMMRAGLVEGMGLQVDEVVDALAQSLEVIAANGGADADDATRWTRLLQASRAFGKQFLEFHVANPNGDVISSSASLPEGINVADRAYFSTSLATEGMVASEGLVSRHTGQIALYFALAVRSDEEAHSGVVFAGFNGEVFGDMLRKAGPRSDGLTVFVLDRNGDSVYEHLPSGGRHPVHIPPADLRDCADGRRAWLEFGGTRHAVSVMAKRLATGEAPYLYLLVSTPDESFFSLSTLRGVTPLLLGTLCVALAALAAANRRIVHPLESLTRKVQAIEAGQPLPETAMESVREIGGLQTAVTRMAQAISQREQELAWFATHDDLTGLANRKALHEMLAARLDRLEEGASETVAVIFIDIDRFKAINDSMGHTWGDNVIAAFAARLGAFMHPLHAFCARVGGDEFVVVPDASATHNVVRDTRALLAHLGTPYDINGREVRLSASAGVLFVGDPGESPDVIIRNANAAMHRSKERGFGRISIFRPLHLDSYMLRLDIERELPLAAATGQLHMVYQPIVNASDGSLHSFEALMRWNHPRHGSLSPATFITVAEQTGHVGLLGDFALREAGACVRRFGEAGLLTPGLRFGVNISPAHLMAQDFLSDIESVLDAVSVPGDRITLEVTESALISTGAELMGRLETLAKRGLNFAIDDYGAGYSNIQYLASEHFRVIKIDKSLIDEVHLRDRMRAIVRSTVQLAHSLGCKIVAEGVETHAQANLLARLGCDYLQGYLFSRPVPETDAMRLAIRAMDQGTLLPPEAHPDA”, the protein production entry is recorded as “failed”.

Turning to “MTSLPTPIIGLIVAVFVLVWLVLRTRVHALIAMLAAACIAGLLGGMGIDKTLSVITSGFGTTLGSIGLVIGLGVMMGRLLEVSGAAERIAWSFIKWLGKRREEWALAITGYIVSIPIFVDSAFVILYPVAKALAKSGKRSLLTLGVALAGGLAVTHHTVPPTPGPLGVAGIFNVDIGAMLLTGMALAVPCVIGIVFYAQWLDKRYPDFVPRTLNADEVNAALEQYNKEKEQKDLPSLTLSLLPIVVPIVLIFLKAICSTLATIEGWSGLATHPVVQAINFVGSPVIALAISVLLAVYTLVPRMDKHTTAERLEEGLQSAGIILLVTGAGGALGAILRDSGAGQQLAEQVANLPISPILIPFIVATLVRLIQGSGTVAMITAASISAPILAQIPGINMLLAAQAATMGSLFFGYFNDSLFWVVNRMMGVSDVKQQMVVWSVPTTIAWAIGGTGVALINLLFGSGGSWLDPLLPIVVLAAIMLWVRWQAQGIKDKLVVKD”, the protein production result is “failed”.

Take “MSNPLLSIIIPTHNRPHLVTHAVQSALEQTMEDLEVIVVDDASTQPIDLPSHPRLRLIRLLQSHGGAGARNVGLEAALGRWVAFLDDDDRLLPQMAEVSLEALSQTSLPAPVAVISGLEEVNAQGKVLGQRLPPPLRPRGVHFFLEEIEPDQSYNTKQTLVVEREVLQKIGGWDEEMRSRVHSELFLRLNPACSIIGLPIITYQLYNHGGQRVSRNPMLRQESFLRLVHKHKSLFQAHPQMFAKLVYEHANKCYEIGLKREAFYNLFWSMQLDPLQIAPRVVTRVYQSRLKFVIRSYKLKH”: the protein production entry was “failed”.

With “VLAPNVYFNPDAPPRKKRPLNVCAPEVVFFPTEDGVNLRLTRYNGGGKGPVMLVHGLGVGSNIFSTDTISTNLLEYLYQHGYDVWLLDFRVSILLPASQQQWDGDQVARYDYPAAIRRIREATGAADVQCVVHCYGATTFFMSMLAGLEGVRSVVCSQIAADIVVPTATQVKTGLHLPTVLDKLGVSSLTAYTASDSNWFEKLYDTALKGYALAEAQGYCNNPVCHRITFMYASLYRHETLNETLHDNLHELFGVANMRTMEHLARMCREGRLVSFDGDDIYMPHFDRLQMPILFISGEQNECYLPESTERTFDKLAQRFGPERYSRLVVPGYGHIDCMFGKNAAADVYPAIVAHLDKT”, the protein production entry is reported as “failed”.

On to “NQLWTVEEQKKLEQLLIKYPPEEVESRRWQKIADELGNRTAKQVASQVQKYFIKLTKAGIPV”, for which the protein production result is on record as “not failed”.

Regarding “MHKVLVPFDGSEHAMRALGYVIELSGDLNKPLEVHVLNVQASPIDYSLYLAPDMIDGVKAGLKNEGKRVLDDAIALLAAAGVPFQAHVDLGNVAEQVEAEVQRLGCDAVVMGTRGLGNFGGLLLGSVATRVIHEVSVPVTLIK”, the protein production entry was “failed”.

In the case of “MSSWRKPGPIPRDLSVEIDSSTERRIIAKLLPGVMGPGFRQDDAGEAAMSDPSAHWNNVYATKGETEVSWFQESPAISLDMIRSANVDRGAGIIDIGGGASRLVDALLQDGYRNLAVLDLSANALDAAKRRIGPAAASVDWIVADATTWRPARSYEVWHDRAAFHFLTDPRDRAAYVERLRSAVAAGGHVIIATFALDGPEKCSGLPVQRHDSKSLSTELGPDFELIETRSETHHTPWKSTQAFQFSRFRRRGS”, the protein production entry is reported as “failed”.

As to “MILSNYPLRDRKDSTMGSKTKIVVIRCKELIAGIILSVIALAILALIVISLMNRNTHDTTPPSGRYTAGVYSSSVILNGNPVDIRVTVDEDNINNIEMVNISDSVTTMYPLIQNSFEEIKSSVIANGGVEGVTYSSENKYTSVMILKAIENALDKCRTY”, the protein production entry is “failed”.

Regarding “MLDLQMKTAVIAVYKNAAFLEENVRLLQKEGFDVIVAADEPEESVREIIEKYSLRATVSERRRGKWRALNDAARIADGEELLFLDSDTIIKNLTGLNGADVVEVVKEVEGKGLLEKLVAVDYLVMAMCAKLASKFGSCLGVNGAAFLIKRRAFEELGGFRCKVNEDTELGIRAALGGYRFAVCGRAVTSVPKSIGEWFRQRERWSVGGTEVFVENLSAIIRKPRLWVPYLVLFYPAIFGLVISLFFTENYIAKLLYLVLPFLALISPKLASIAILAVYEMENVRNLVAGVASFVAWSGLILLASKKLGYRVDMKVLPIYYFIYSPLWTVICLISLVRVAVARVTGRKIELKDWVV”, the protein production result is “failed”.

On to “MSKITFKDIYIDGNKITEDSRKAIYLLPPQPLKYASNTWIYKTMPTMNQWLKDIEVQKKMHLNQSSYHLSFSFPANEKIDEVLLEKIRELGFQIGVLELYVIEAKALKELSRKRDVDIQLVSSNNINDYLHVYDAFARPFGDSYANMVKQHIYSSYNLDDIERLVAYVNHQPVGIVDIIMTDKTIEIDGFGVLEEFQHQGIGSEIQAYVGRMANERPVILVADGKDTAKDMYLRQGYVYQGFKYHILKENI”, for which the protein production entry is “not failed”.

“MRVLKFGGSSLADADRFLRAADIIANNAQQEEVAVVLSAPGKTTNKLVAVIEGALRNGEAELQINELEESFKTLFADIQAVLPNLEGAAFDNQVKTSLSQLRQFVHGINLLGMCPNNVNAR”: the protein production result is on record as “failed”.

“MDFDYTIKALKTKKKLDAKPNTHTDFVYTTKALRSRKKLDTKPNIHTDFGYAIKAWRSKKKLDIVLESNMTRYMCMIEYKN”: the protein production result was “failed”.

As to “MKTKTLNTNRFIKLSLLSAIAVILMYIDFPVIPIFPWLKIDLSDVPALMGAFAFGPLAGVIIELMKNLLILIVKGTGTGFVGELANFLVGVALVWPAALVYKKNKTKKTAILGMVLGVLCIEVVGILANVYLLLPAYGMAMSKAELMQYVTVGLIPFNGIKSILVCGITYALYKKVSVSIFKVEPMLDKPKQMKENLG”, the protein production entry is recorded as “failed”.

As to “MAETAETINTTISSPPPESESSTTISAMTDPTSQEAASKDTDLTKEAESEKKPGGISLRIWPPTQKTRDAVLNRLIETLSTESILSKRYGTLKSDDATTVAKLIEEEAYGVASNAVSSDDDGIKILELYSKEISKRMLESVKARSNASVGNGSVEDANTDASEVSKDDAGPASEEEKSEA”, the protein production result was “failed”.

Regarding “MHLSLLVPFLFWITGCCTAEDPVTGPEEVSGQEQGSLTVQCRYTSGWKDYKKYWCQGVPQRSCKTLVETDASEQLVKKNRVSIRDNQRDFIFTVTMEDLRMSDAGIYWCGITKGGLDPMFKVTVNIGPAIQVPITVPTMPPITSTTTIFTVTTTVKETSMFPTLTSYYSDNGHGGGDSGGGEDGVGDGFLDLSVLLPVISAVLLLLLLVASLFAWRMVRRQKKAAGPPSEQAQSLEGDLCYADLSLKQPRTSPGSSWKKGSSMSSSGKDHQEEVEYVTMAPFPREEVSYAALTLAGLGQEPTYGNTGCPITHVPRTGLEEETTEYSSIRRPLPAAMP”, the protein production entry is “not failed”.
